{"source": "patent US20080286284A1", "about": "(published 2008)", "binders": {"B1": {"name": "^225Ac labeled mAb 026 (antibody, V domains shown)", "VH": "QVQLVESGGGVVQPGRSLRLSCAASGFTFSNYVMHWVRQAPGKGLEWVAIIWYDGSNKYYADSVKGRFTISRDNSKNTLYLQMNSLRAEDTAVYYCAGGYNWNYEYHYYGMDVWGQGTTVTVSS", "VL": "DIQMTQSPSSLSASVGDRVTITCRASQGITNYLAWFQQKPGKAPKSLIYAASSLQSGVPSKFSGSGSGTDFSLTISSLQPEDFATYYCQQYNSYPITFGQGTRLEIK"}, "B2": {"name": "AB-PG1-XG1-006 (antibody, V domains shown)", "VH": "QVQLVESGGGVVQPGRSLRLSCAASGFAFSRYGMHWVRQAPGKGLEWVAVIWYDGSNKYYADSVKGRFTISRDNSKNTQYLQMNSLRAEDTAVYYCARGGDFLYYYYYGMDVWGQGTTVTVSS", "VL": "DIQMTQSPSSLSASVGDRVTITCRASQGISNYLAWYQQKTGKVPKFLIYEASTLQSGVPSRFSGGGSGTDFTLTISSLQPEDVATYYCQNYNSAPFTFGPGTKVDIK", "notes": "also called XG-006; PRGX1-XG1-006"}, "B3": {"name": "AB-PG1-XG1-026 (antibody, V domains shown)", "VH": "B1 VH", "VL": "B1 VL", "notes": "also called XG-026; PRGX1-XG1-026"}, "B4": {"name": "PSMA 10.3 (antibody, V domains shown)", "VH": "QEQLVESGGGVVQPGRSLRLSCAASGFTFSTYGMHWVRQAPGKGLEWVAVTWHDGSNKYYADSVKGRFTISRDNSKNTLYLQMNSLRAEDTAVYYCARGGVGATYYYYYGMDVWGQGTTVTVSS", "VL": "not shown"}, "B5": {"name": "AB-PG1-XG1-051 (antibody, V domains shown)", "VH": "QVQLVESGGGVVQPGRSLRLSCAASGFTFSSYGMHWVRQAPGKGLDWVAIIWHDGSNKYYADSVKGRFTISRDNSKKTLYLQMNSLRAEDTAVYYCARAWAYDYGDYEYYFGMDVWGQGTTVTVSS", "VL": "B1 VL with T30S, N31H, S72T, Y94F, I96L, Q100G, R103K, L104V", "notes": "also called XG-051; PRGX1-XG1-051"}, "B6": {"name": "AB-PG1-XG1-077 (antibody, V domains shown)", "VH": "QVQLVESGGGVVQPGRSLRLSCAASGFTFISYGMHWVRQAPGKGLEWVAVISYDGSNKYYADSVKGRFTISRDNSKNTLYLQMNSLRAEDTAVYYCARVLVGALYYYNYYGMDVWGQGTTVTVSS", "VL": "DIVMTQTPLSLSVTPGQPASISCKSSQSLLHSDGKTFLYWYLQKPGQPPQLLIYEVSNRFSGVPDRFSGSGSGTDFTLKISRVEAEDVGLYYCMQSIQLPLTFGGGTKVEIK", "notes": "also called PRGX1-XG1-077"}, "B7": {"name": "AB-PG1-XG1-069 (antibody, V domains shown)", "VH": "EVQLVQSGAEVKKPGESLKISCKGSGYSFTSYWIGWVRQMPGKGLEWMGIIYPGDSDTRYSPSFQGQVTISADKSISTAYLQWSSLKASDTAMYYCARRMAAAGPFDYWGQGTLVTVSS", "VL": "GIVMTQSPATLSVSPGERATLSCRTSQSIGWNLAWYQQKPGQAPRLLIYGASSRTTGIPARFSGSGSGTEFTLTISSLQSEDSAVYYCQHYDNWPMCSFGQGTELEIK", "notes": "also called PRGX1-XG1-069"}}, "key": {"[1]": {"molecular_target": "T1, prostate specific membrane antigen (PSMA), full-length human (human, UniProt Q04609 1-750)", "T1 sequence (Q04609 whole entry)": "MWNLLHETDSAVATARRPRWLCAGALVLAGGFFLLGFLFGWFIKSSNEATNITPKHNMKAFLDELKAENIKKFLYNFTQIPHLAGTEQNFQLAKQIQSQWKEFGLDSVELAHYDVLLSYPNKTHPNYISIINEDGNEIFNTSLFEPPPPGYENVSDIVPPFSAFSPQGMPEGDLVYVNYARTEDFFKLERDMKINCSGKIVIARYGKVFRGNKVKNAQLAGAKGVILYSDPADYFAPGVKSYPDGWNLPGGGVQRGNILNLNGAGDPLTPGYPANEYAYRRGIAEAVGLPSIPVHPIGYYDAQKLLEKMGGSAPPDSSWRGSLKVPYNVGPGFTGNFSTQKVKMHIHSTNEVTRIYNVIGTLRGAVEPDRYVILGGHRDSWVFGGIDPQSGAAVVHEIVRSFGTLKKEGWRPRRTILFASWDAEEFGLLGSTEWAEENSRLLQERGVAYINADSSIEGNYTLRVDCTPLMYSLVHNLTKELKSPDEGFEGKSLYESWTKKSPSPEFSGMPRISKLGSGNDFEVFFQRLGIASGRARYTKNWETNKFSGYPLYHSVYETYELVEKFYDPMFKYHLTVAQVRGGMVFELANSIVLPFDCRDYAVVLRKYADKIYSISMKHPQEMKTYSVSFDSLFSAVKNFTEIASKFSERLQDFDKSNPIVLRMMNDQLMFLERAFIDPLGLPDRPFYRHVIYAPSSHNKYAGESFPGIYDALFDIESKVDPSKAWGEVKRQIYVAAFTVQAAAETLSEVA", "test": "cell-based or functional assay"}, "[2]": {"molecular_target": "T2, recombinant soluble PSMA (rsPSMA) (human, UniProt Q04609 44-750)", "T2 construct": "also called rsPSMA dimer; secreted rsPSMA", "T2 sequence (Q04609 44-750)": "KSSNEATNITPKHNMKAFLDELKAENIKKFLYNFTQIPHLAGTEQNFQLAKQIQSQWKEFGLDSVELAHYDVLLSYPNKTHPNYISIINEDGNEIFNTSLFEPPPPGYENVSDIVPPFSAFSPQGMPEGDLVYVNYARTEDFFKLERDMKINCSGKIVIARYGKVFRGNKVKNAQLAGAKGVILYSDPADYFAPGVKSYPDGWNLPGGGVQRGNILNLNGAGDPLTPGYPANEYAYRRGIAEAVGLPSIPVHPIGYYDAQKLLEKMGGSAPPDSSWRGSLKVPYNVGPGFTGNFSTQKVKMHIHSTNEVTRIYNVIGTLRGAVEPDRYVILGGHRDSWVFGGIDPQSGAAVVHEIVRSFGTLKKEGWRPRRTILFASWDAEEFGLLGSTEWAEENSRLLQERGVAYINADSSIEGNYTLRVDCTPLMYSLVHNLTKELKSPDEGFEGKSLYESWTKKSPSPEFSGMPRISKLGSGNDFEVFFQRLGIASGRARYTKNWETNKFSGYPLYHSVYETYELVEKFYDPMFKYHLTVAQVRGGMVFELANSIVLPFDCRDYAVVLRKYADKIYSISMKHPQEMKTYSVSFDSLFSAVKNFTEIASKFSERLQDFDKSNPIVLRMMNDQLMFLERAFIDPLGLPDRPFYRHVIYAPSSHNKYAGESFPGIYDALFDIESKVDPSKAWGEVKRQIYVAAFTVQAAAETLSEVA", "test": "Biacore, rsPSMA", "method": "(§1) The streptavidin-coated sensor chips (SA chips, Biacore) were used to capture biotinylated anti-human IgG antibody (Sigma, St. Louis, Mo.). The entire sensor chip surface was conditioned with five injections of conditioning solution (1 M NaCl, 50 mM NaOH) and equilibrated with PBS buffer containing 0.005% polysorbate 20. Two to three thousand resonance units (RU) of biotinylated anti-human IgG antibody (Sigma) were immobilized onto the SA chip followed by an injection of regeneration buffer (glycine-HCl, pH 2.2). […] For each antibody at one concentration, the chip was regenerated and equilibrated. […] Thermodynamic and kinetic rate constants of binding were calculated using the Biacore Evaluation software."}, "[3]": {"molecular_target": "T1, prostate specific membrane antigen …", "test": "FACS, 3T3-PSMA cells", "method": "Control anti-human IgG (Caltag, Burlingame, Calif.) was used to establish background binding. After two washes in PBS, the cells were incubated with anti-human IgG (BD Pharmingen, San Diego, Calif.) for 30 minutes on ice. Cells were washed twice in PBS, resuspended in 250 μl PBS and analyzed by flow cytometry using a FACScan machine (Becton Dickinson, Franklin Lakes, N.J.) and CellQuest software. Viable cells were gated by forward scatter and side scatter parameters, and binding was quantified using histogram plots of mean fluorescence intensity (MFI) levels."}, "[4]": {"molecular_target": "T1, prostate specific membrane antigen …", "test": "lysate EIA, supernatant"}, "[5]": {"molecular_target": "T2, recombinant soluble PSMA (rsPSMA)", "test": "Biacore; Avg KD", "method": "(§2) To determine the kinetics and affinity of the antibodies, the antibodies in crude supernatants, in purified form and in bifunctional chelate modified forms were analyzed using a Biacore 3000 instrument (Biacore Inc., Piscataway, N.J.). Biacore 3000 is a fully automated surface plasmon resonance (SPR)-based biosensor system that is designed to provide real-time kinetic data from assay formats that require no tags or labeling of compounds for biomolecular interactions. It is ideal for screening crude supernatants.\nas §1"}, "[6]": {"molecular_target": "T1, prostate specific membrane antigen …", "test": "FACS, supernatant"}, "[7]": {"molecular_target": "T2, recombinant soluble PSMA (rsPSMA)", "test": "Biacore, captured mAb, rsPSMA in flow", "method": "as §2, §1"}, "[8]": {"molecular_target": "T2, recombinant soluble PSMA (rsPSMA)", "test": "cell-based or functional assay"}, "[9]": {"molecular_target": "T2, recombinant soluble PSMA (rsPSMA)", "test": "Biacore; Avg KD of purified 006", "method": "as §2, §1"}, "[10]": {"molecular_target": "T1, prostate specific membrane antigen …", "test": "FACS, C4-2 cells"}, "[11]": {"molecular_target": "T2, recombinant soluble PSMA (rsPSMA)", "test": "Biacore; Avg KD of purified 10.3", "method": "as §2, §1"}}, "note": "Changes are numbered by the printed parent chain. Several values for one entry are separate records, joined by “and”; a condition that tells them apart may be missing. Equal values may be shown once.", "data": [{"binder": "B1", "values": [{"measurement": "IC50, ^3H thymidine incorporation, C4-2 cells", "setting": "[1]", "value": 0.12, "unit": "nCi/mL"}, {"measurement": "IC50, cytotoxicity on C4-2 and LNCaP cells", "setting": "[1]", "value": "< 1", "unit": "nCi/mL"}, {"measurement": "selectivity of killing vs. control antibody (HuIgG)", "setting": "[1]", "value": "> 50", "unit": "fold"}, {"measurement": "selectivity of killing vs. control mAb (HuM195)", "setting": "[1]", "value": "> 100", "unit": "fold"}, {"measurement": "selectivity of killing, C4-2 vs. PC3", "setting": "[1]", "value": "> 50", "unit": "fold"}]}, {"binder": "B2", "values": [{"measurement": "Kd", "setting": "[2]", "value": 0.48, "unit": "nM"}, {"measurement": "koff", "setting": "[2]", "value": "6.4e-05", "unit": "s⁻¹"}, {"measurement": "kon", "setting": "[2]", "value": 130000, "unit": "M⁻¹ s⁻¹"}, {"measurement": "AVG Max binding", "setting": "[3]", "value": 183}, {"measurement": "Lysate EIA", "setting": "[4]", "value": 0.39}, {"measurement": "Kd", "setting": "[5]", "value": 0.492, "unit": "nM"}, {"measurement": "PGNX FACS", "setting": "[6]", "value": 114}, {"measurement": "Kd", "setting": "[7]", "value": "0.466 nM and 0.562 nM and 0.492 nM"}, {"measurement": "koff", "setting": "[7]", "value": "0.000137 s⁻¹ and 0.000127 s⁻¹ and 6.4e-05 s⁻¹"}, {"measurement": "kon", "setting": "[7]", "value": "294000 M⁻¹ s⁻¹ and 226000 M⁻¹ s⁻¹ and 130000 M⁻¹ s⁻¹"}, {"measurement": "IC50, folate hydrolase activity", "setting": "[8]", "value": 9.34, "unit": "µg/mL"}, {"measurement": "Kd", "setting": "[9]", "value": 0.514, "unit": "nM"}, {"measurement": "C4.2 FACS", "setting": "[10]", "value": 9.5}]}, {"binder": "B3", "values": [{"measurement": "Kd", "setting": "[2]", "value": 0.2, "unit": "nM"}, {"measurement": "koff", "setting": "[2]", "value": "2.9e-05", "unit": "s⁻¹"}, {"measurement": "kon", "setting": "[2]", "value": 150000, "unit": "M⁻¹ s⁻¹"}, {"measurement": "AVG Max binding", "setting": "[3]", "value": 148}, {"measurement": "IC50, folate hydrolase activity", "setting": "[8]", "value": 1.39, "unit": "µg/mL"}]}, {"binder": "B4", "values": [{"measurement": "Kd", "setting": "[2]", "value": 1.9, "unit": "nM"}, {"measurement": "koff", "setting": "[2]", "value": 0.000364, "unit": "s⁻¹"}, {"measurement": "kon", "setting": "[2]", "value": 190000, "unit": "M⁻¹ s⁻¹"}, {"measurement": "Kd", "setting": "[11]", "value": 0.205, "unit": "nM"}, {"measurement": "AVG Max binding", "setting": "[3]", "value": 181}, {"measurement": "Lysate EIA", "setting": "[4]", "value": 1.06}, {"measurement": "Kd", "setting": "[5]", "value": 1.91, "unit": "nM"}, {"measurement": "kon", "setting": "[7]", "value": "190000 M⁻¹ s⁻¹ and 328000 M⁻¹ s⁻¹ and 296000 M⁻¹ s⁻¹"}]}, {"binder": "B5", "values": [{"measurement": "Kd", "setting": "[2]", "value": 0.58, "unit": "nM"}, {"measurement": "koff", "setting": "[2]", "value": "8.2e-05", "unit": "s⁻¹"}, {"measurement": "kon", "setting": "[2]", "value": 140000, "unit": "M⁻¹ s⁻¹"}, {"measurement": "AVG Max binding", "setting": "[3]", "value": 202}, {"measurement": "Lysate EIA", "setting": "[4]", "value": 0.48}, {"measurement": "PGNX FACS", "setting": "[6]", "value": 83}, {"measurement": "C4.2 FACS", "setting": "[10]", "value": 9.9}]}, {"binder": "B6", "values": [{"measurement": "Kd", "setting": "[2]", "value": 1.6, "unit": "nM"}, {"measurement": "koff", "setting": "[2]", "value": 0.000104, "unit": "s⁻¹"}, {"measurement": "kon", "setting": "[2]", "value": 60000, "unit": "M⁻¹ s⁻¹"}, {"measurement": "AVG Max binding", "setting": "[3]", "value": 227}, {"measurement": "Lysate EIA", "setting": "[4]", "value": 0.45}, {"measurement": "PGNX FACS", "setting": "[6]", "value": 392}, {"measurement": "C4.2 FACS", "setting": "[10]", "value": 12.4}]}, {"binder": "B7", "values": [{"measurement": "binding result", "setting": "[2]", "value": "no binding"}, {"measurement": "AVG Max binding", "setting": "[3]", "value": 71}]}]}
